The record followed here is article PMC10557681.

The test deals with recombinant WU2 (r)PspA possessing only αHD and PRD (Streptococcus pneumoniae serotype 3 strain WU2). The test can be described thus: SPR.

As for “recombinant lactoferrin (LF) (from UniProt P02788 20-710) (natural protein)”, the Kd turned out to be 3.89 nM.
